Assay results as given in the RNAGym collection of RNA variant scans (doi:10.7554/elife.90254).

B1: LINE1-full (parent)
chain: UACGUAGGUGGUUUUCCCCUGAUAGUGCUAAGGGGGCCUGGAAGUUUGGACUGGGCAGAGCUCAACACAGCGUGGCAAAGUGGCUGUGGCUAGACUGCCUCUCUGGAUUCCUCGUCACUCAGCAGGGCAUCUCUGAGAGAAAUGCC

Variants of: B1
Test: self-cleavage, relative activity (ratio to wild type); higher = more cleavage; in vitro, sequencing; the parent is a self-cleaving ribozyme
In the case of UACAUAGGUGGUUUUCCCCUGAUAGUGCUAAGGGGGCCUGGAAGUUUGGACUGGGCAGAGCUCAACACAGCGUGGCAAAGUGGCUGUGGCUAGACUGCCUCUCUGGAUUCCCCGUCACUCAGCAGGGCAUCUCUGAGAGAAAUGCC [G4A U112C], the self-cleavage is reported as 1.31. UACAUAGGUGGCUUUCCCCUGAUAGUGCUAAGGGGGCCUGGAAGUUUGGACUGGGCAGAGCUCAACACAGCGUGGCAAAGUGGCUGUGGCUAGACUGCCUCUCUGGAUUCCUCGUCACUCAGCAGGGCAUCUCUGAGAGAAAUGCC [G4A U12C] gave a self-cleavage of 0.77. UACAUAGGUGGUUUUCCCCUGAUAGUGCUAAGGGGGCCUGGAAGUUUGGACUGGGCAGAGCUCAACACAGCGUGGCAAAGUGGCUGUGGCUAAACUGCCUCUCUGGAUUCCUCGUCACUCAGCAGGGCAUCUCUGAGAGAAAUGCC [G4A G93A] showed a self-cleavage of 0.03. For UACCUAGGUGGUUUUCCCCUGAUAGUGCUAAGGGGGCCUGGAAGUUUGGACUGGGCAGAGCUCAACACAGCGUGGCAAAGUGGCUGUGGCUAGACUGCCUCUCUGGAUUCCUCGUCACUCAGCAGGGCAUCUCUGAGAGAAAUGCC [G4C], the self-cleavage was 1.17. UACAUAGGUGGUCUUCCCCUGAUAGUGCUAAGGGGGCCUGGAAGUUUGGACUGGGCAGAGCUCAACACAGCGUGGCAAAGUGGCUGUGGCUAGACUGCCUCUCUGGAUUCCUCGUCACUCAGCAGGGCAUCUCUGAGAGAAAUGCC [G4A U13C] showed a self-cleavage of 1.12. Variant UACAUAGGUGGUUUUCCCCUGAUAGUGCUAAGGAGGCCUGGAAGUUUGGACUGGGCAGAGCUCAACACAGCGUGGCAAAGUGGCUGUGGCUAGACUGCCUCUCUGGAUUCCUCGUCACUCAGCAGGGCAUCUCUGAGAGAAAUGCC [G4A G34A] has a self-cleavage of 0.66. For UACAUAGGUGGUUUUCCCCUGAUAGUGCUAAGGGGGCCUGGAAGUUUGGACUGGGCAGAGCUCAACACAGCGUGGCAAAGUGGCUGUGGCUAGACUGCCUCUCUGGAUUCCUCGUAACUCAGCAGGGCAUCUCUGAGAGAAAUGCC [G4A C116A], the self-cleavage was 1.22. UACAUAGGUGGUUUUCCCCUGAUAGUGCUAAGGGGGCCUGGAAGUUUGGACUGGGCAGAGCUCAACACAGCGUGGCAAAGUGGCUGUGGCUAGACUGCCCCUCUGGAUUCCUCGUCACUCAGCAGGGCAUCUCUGAGAGAAAUGCC [G4A U100C] gave a self-cleavage of 1.21. In the case of UACAUAGGUAGUUUUCCCCUGAUAGUGCUAAGGGGGCCUGGAAGUUUGGACUGGGCAGAGCUCAACACAGCGUGGCAAAGUGGCUGUGGCUAGACUGCCUCUCUGGAUUCCUCGUCACUCAGCAGGGCAUCUCUGAGAGAAAUGCC [G4A G10A], the self-cleavage is reported as 1.21. Variant UACAUAGGUGGUUUCCCCCUGAUAGUGCUAAGGGGGCCUGGAAGUUUGGACUGGGCAGAGCUCAACACAGCGUGGCAAAGUGGCUGUGGCUAGACUGCCUCUCUGGAUUCCUCGUCACUCAGCAGGGCAUCUCUGAGAGAAAUGCC [G4A U15C] has a self-cleavage of 1.11. With UACAUAGGUGGUUUUCCCCUGAUAGUGCUAAGGGGGCCUGGAAGCUUGGACUGGGCAGAGCUCAACACAGCGUGGCAAAGUGGCUGUGGCUAGACUGCCUCUCUGGAUUCCUCGUCACUCAGCAGGGCAUCUCUGAGAGAAAUGCC [G4A U45C] the self-cleavage was 0.57. With UACAUAGGUGGUUUUCCCCUGAUAGUGCUAAGGGGGCCUGGAAGUUUGGACUGGGCAGAGCUCAACACAGCGUGGCAAAGUGGCUGUGGCUAGACUGCCUCUCUGGAGUCCUCGUCACUCAGCAGGGCAUCUCUGAGAGAAAUGCC [G4A U108G] the self-cleavage was 0.96. In the case of UACAUAGGUGGUUUUCCCCUGAUAGCGCUAAGGGGGCCUGGAAGUUUGGACUGGGCAGAGCUCAACACAGCGUGGCAAAGUGGCUGUGGCUAGACUGCCUCUCUGGAUUCCUCGUCACUCAGCAGGGCAUCUCUGAGAGAAAUGCC [G4A U26C], the self-cleavage is reported as 0.61. With UACCUAGGUGGUUUUCCCCUGAUAGUGCUAAGGGGGCCUGGAAGUUUGGACUGGGCAGAGCUCAACACAGCGUGGCAAAGUGGCUGUGGCUAGACUGCCUCUCUGGAUUCCUCGUCACUCAGCAGGGCAUCUCUAAGAGAAAUGCC [G4C G135A] the self-cleavage was 0.56. For UACAUAGGUGGUUUUCCCCUGAUAGUGCUAAGGGGGCCUGGAAGUUUGGACUGGGCAGAGCUCAACACAGCGUGGCAAAGUGGCUGUGGCUAGACUGCCUCUCUGGAUUCCUCGUCACUCAGCAGGGCAUCUCUGUGAGAAAUGCC [G4A A136U], the self-cleavage was 1.51. For UACAUAGGUGGUUUUCCCCUGAUAGUGCUAAGGGGGCCUGGAAGUUUGGACUGGGCAGAGCUCAACACAGCGUGGCAAAGUGGCUGUGGCUAGACUGCCUCUCUGGAUUCCUCGUCACUCAGCAGGGCAUCUCUGAGAGAAAUGUC [G4A C145U], the self-cleavage was 1.11. For UACAUAGGUGGUUUUCCCCUGAUAGUGCUAAGGGGGCCUGGAAGUUUGGACUGGGCAGAGCUCAACACAGCGUGGCAAAGUGGCUGAGGCUAGACUGCCUCUCUGGAUUCCUCGUCACUCAGCAGGGCAUCUCUGAGAGAAAUGCC [G4A U87A], the self-cleavage was 0.12. Work on UACAUAGGUGGUUUUCCCUUGAUAGUGCUAAGGGGGCCUGGAAGUUUGGACUGGGCAGAGCUCAACACAGCGUGGCAAAGUGGCUGUGGCUAGACUGCCUCUCUGGAUUCCUCGUCACUCAGCAGGGCAUCUCUGAGAGAAAUGCC [G4A C19U] yielded a self-cleavage of 0.59. Variant UACCUAGGUGGUUUUCCCCUGAUAGUGCUAAGGGGGCCUGGAAGUUUGGACUGGGCAGAGCUCAACACAGCGUGGCAAAGUGGCUGUGGCUAGACUGCCUCUCUGGGUUCCUCGUCACUCAGCAGGGCAUCUCUGAGAGAAAUGCC [G4C A107G] has a self-cleavage of 0.29. With UACAUAGGUGGUUUUCCCCUGAUAGUGCUAAGGGGGCCUGGAAGUUUGGACUGGGCAGAGCUCAACACAGCGUGGCAAAGCGGCUGUGGCUAGACUGCCUCUCUGGAUUCCUCGUCACUCAGCAGGGCAUCUCUGAGAGAAAUGCC [G4A U81C] the self-cleavage was 1.44. UACCUAGGUGGUUUUCCCCUGAUAGUGCUAAGGGGGCCUGGAAGUUUGGACUGGGCAGAGCUCAACACAGCGUGGCAAAGUGGCUGUGGCUAGACUGCCUCUCUGGAUUCCUCGUCACUCAGCAGGGCAUCUCUGAGAGGAAUGCC [G4C A140G] gave a self-cleavage of 1.19. Variant UACAUAGGCGGUUUUCCCCUGAUAGUGCUAAGGGGGCCUGGAAGUUUGGACUGGGCAGAGCUCAACACAGCGUGGCAAAGUGGCUGUGGCUAGACUGCCUCUCUGGAUUCCUCGUCACUCAGCAGGGCAUCUCUGAGAGAAAUGCC [G4A U9C] has a self-cleavage of 0.69. UACAUAGGUGGUUUUCCCCUGAUAGUGCUAAGGGGGCCUGGAAGUUUGGACUGGGCAGAGCUCAACACAGCGUGGCAAAGUGGCUGUGGCUAGACUGCCUCGCUGGAUUCCUCGUCACUCAGCAGGGCAUCUCUGAGAGAAAUGCC [G4A U102G] showed a self-cleavage of 0.26. Work on UACAUAGGUGGUUUUCCCCUGAUAGUGCUAAGGGGGCCUGGAAGUUUGGACUGGGCAGAGCUCAACACAGCGUGGCAAAGUGGCUGUGGCUAGACUGCCUCCCUGGAUUCCUCGUCACUCAGCAGGGCAUCUCUGAGAGAAAUGCC [G4A U102C] yielded a self-cleavage of 0.82. Work on UACAUAGGUGGUUUUCCCCUGAUAGUGCUAAGGGGGCCUGGAAGUUUGGACUGGGCAGAGCUCAACACAGCGUGGCAAAGUGGCUGUGGCUAGACUGCCUCUCUGGAUUCCUCGUCACUCAGCAAGGCAUCUCUGAGAGAAAUGCC [G4A G125A] yielded a self-cleavage of 0.86. UACAUAGGUGGUUUUCCCCUGAUAGUGCUAAGGGGGCCUGGAAGUUUGGACUGGGCAGAGCUCAACACAGCGUGGCAAAGUGGCUGUGGCUAGACUGCCUCUCUGGAUUCCUCGUCACUCAGCAGGACAUCUCUGAGAGAAAUGCC [G4A G127A] showed a self-cleavage of 1.67. Work on UACAUAGGUGGUUUUCCCCUGAUAGUGCUAAGGGGGCCUGGAAGUUUGGACUGGGCAGAGCUCAACACAUCGUGGCAAAGUGGCUGUGGCUAGACUGCCUCUCUGGAUUCCUCGUCACUCAGCAGGGCAUCUCUGAGAGAAAUGCC [G4A G70U] yielded a self-cleavage of 0.11. UACAUAGGUGGUUUUCCCCUGAUAGUGCUAAGGGGGCCUGGAAGUUUGGACUGGGCAGAGCCCAACACAGCGUGGCAAAGUGGCUGUGGCUAGACUGCCUCUCUGGAUUCCUCGUCACUCAGCAGGGCAUCUCUGAGAGAAAUGCC [G4A U62C] showed a self-cleavage of 0. In the case of UACAUAGGUGGUUUUCCCCUGAUAGUGCUAAGGGGGCCUGGAAGUUUGGACUGGGCAGAGCUCAACACAGCGUGGCAAAGUGGCAGUGGCUAGACUGCCUCUCUGGAUUCCUCGUCACUCAGCAGGGCAUCUCUGAGAGAAAUGCC [G4A U85A], the self-cleavage is reported as 0.04. For UACAUAGGUGGUUUUCCCCUGAUAGUGCUAAGGGGGCCUGGAAGUUUGGACUGGGCAGAGCUCAACACAGCGUGACAAAGUGGCUGUGGCUAGACUGCCUCUCUGGAUUCCUCGUCACUCAGCAGGGCAUCUCUGAGAGAAAUGCC [G4A G75A], the self-cleavage was 0.87. UACAUAGGUGGUUUUCCCCUGAUAGUGCUAAGGGGGCCUGGAAGUUUGGACUGGGCAGAGCUCAACACAGCGUGGCAAAGUGGCUGUGGCUAGACUGCCUCUCUGGAUUCCUCGUCACUCAGCAGGGCAACUCUGAGAGAAAUGCC [G4A U130A] gave a self-cleavage of 0.55. With UACAUAGGUGGUUUUCACCUGAUAGUGCUAAGGGGGCCUGGAAGUUUGGACUGGGCAGAGCUCAACACAGCGUGGCAAAGUGGCUGUGGCUAGACUGCCUCUCUGGAUUCCUCGUCACUCAGCAGGGCAUCUCUGAGAGAAAUGCC [G4A C17A] the self-cleavage was 0.92. UACAUAGGUGGUUUUCCCCUGAUAGUGCUAAGGGGGCCUGGAAGUAUGGACUGGGCAGAGCUCAACACAGCGUGGCAAAGUGGCUGUGGCUAGACUGCCUCUCUGGAUUCCUCGUCACUCAGCAGGGCAUCUCUGAGAGAAAUGCC [G4A U46A] showed a self-cleavage of 1.17. UACAUAGGUGGUUUUCCCCUGAUAGUGCUAAGGGGGCCUGGAAGUUUGGACUGGGCAGAGCUCAACACAGCGUGGCAAAGUGGCUGUGGCUAGACAGCCUCUCUGGAUUCCUCGUCACUCAGCAGGGCAUCUCUGAGAGAAAUGCC [G4A U96A] showed a self-cleavage of 0.08. UACAUAGGUGGUUUUCCCCUGAUAGUGCUAAGGGGGCCCGGAAGUUUGGACUGGGCAGAGCUCAACACAGCGUGGCAAAGUGGCUGUGGCUAGACUGCCUCUCUGGAUUCCUCGUCACUCAGCAGGGCAUCUCUGAGAGAAAUGCC [G4A U39C] showed a self-cleavage of 1.31. UACAUAGGUGGUUUUCCCCUGAUAGUGCUAAGGGGGCCAGGAAGUUUGGACUGGGCAGAGCUCAACACAGCGUGGCAAAGUGGCUGUGGCUAGACUGCCUCUCUGGAUUCCUCGUCACUCAGCAGGGCAUCUCUGAGAGAAAUGCC [G4A U39A] showed a self-cleavage of 0.54. For UACAUAGGUGGUUUUCCCCCGAUAGUGCUAAGGGGGCCUGGAAGUUUGGACUGGGCAGAGCUCAACACAGCGUGGCAAAGUGGCUGUGGCUAGACUGCCUCUCUGGAUUCCUCGUCACUCAGCAGGGCAUCUCUGAGAGAAAUGCC [G4A U20C], the self-cleavage was 1.2. Work on UACCUAGGUGGUUUUCCCCUGGUAGUGCUAAGGGGGCCUGGAAGUUUGGACUGGGCAGAGCUCAACACAGCGUGGCAAAGUGGCUGUGGCUAGACUGCCUCUCUGGAUUCCUCGUCACUCAGCAGGGCAUCUCUGAGAGAAAUGCC [G4C A22G] yielded a self-cleavage of 0.99. Variant UACCUAGGUGGUUUUCCCCUGAUAGUGCUAAGGGGGCCUGGAAGUUUGGACUGGGCAGAGCUCAGCACAGCGUGGCAAAGUGGCUGUGGCUAGACUGCCUCUCUGGAUUCCUCGUCACUCAGCAGGGCAUCUCUGAGAGAAAUGCC [G4C A65G] has a self-cleavage of 0.08.
